Measurements taken from publication PMC9482650, “Quantitative fragmentomics allow affinity mapping of interactomes” (Nature Communications, 2022).

Experiments:
Test in all cases: holdup assay
Set-up in all cases: key: below the threshold = too weak to quantify, mostly under pKd 3.1 to 4
Settings in all cases: plain residues with an end cap or a label only (N-terminal biotin on a linker: ado-ado)
PARD3B_1, Q8TEW8 = biological target: T1, PARD3B_1, Q8TEW8
T1 sequence (Q8TEW8 196-299, limits assumed, looked up): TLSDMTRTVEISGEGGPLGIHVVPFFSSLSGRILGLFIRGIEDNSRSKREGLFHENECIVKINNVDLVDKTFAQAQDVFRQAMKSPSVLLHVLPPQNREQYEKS

LNX2_3, Q8N448 = biological target: T2, LNX2_3, Q8N448
T2 sequence (Q8N448 463-564, limits assumed, looked up): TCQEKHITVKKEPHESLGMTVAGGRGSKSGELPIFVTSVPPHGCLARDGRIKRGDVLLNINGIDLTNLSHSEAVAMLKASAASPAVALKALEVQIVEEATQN

Inadl_4, Q8NI35 = biological target: Inadl_4, Q8NI35
ARHGEF11, O15085 = biological target: T3, ARHGEF11, O15085
T3 sequence (O15085 42-136, limits assumed, looked up): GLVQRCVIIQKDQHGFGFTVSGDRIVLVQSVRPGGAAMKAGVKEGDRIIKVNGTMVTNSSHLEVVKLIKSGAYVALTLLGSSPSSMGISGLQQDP

SNTG1, Q9NSN8 = biological target: T4, SNTG1, Q9NSN8
T4 sequence (Q9NSN8 52-150, limits assumed, looked up): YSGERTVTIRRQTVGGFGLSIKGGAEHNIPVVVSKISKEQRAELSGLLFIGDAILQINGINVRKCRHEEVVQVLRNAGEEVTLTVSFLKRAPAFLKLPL

PCLO, Q9Y6V0 = biological target: T5, PCLO, Q9Y6V0
T5 sequence (Q9Y6V0 4491-4600, limits assumed, looked up): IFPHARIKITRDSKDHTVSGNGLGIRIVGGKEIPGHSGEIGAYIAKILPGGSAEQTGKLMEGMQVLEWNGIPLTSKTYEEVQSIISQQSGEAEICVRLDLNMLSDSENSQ

NHERF2_2, Q15599 = biological target: NHERF2_2, Q15599
SYNJ2BP, P57105 = biological target: T6, SYNJ2BP, P57105
T6 sequence (P57105 8-110, limits assumed, looked up): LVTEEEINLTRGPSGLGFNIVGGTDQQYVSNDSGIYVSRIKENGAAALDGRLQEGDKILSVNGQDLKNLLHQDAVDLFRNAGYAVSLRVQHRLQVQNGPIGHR

Inadl_9, Q8NI35 = biological target: Inadl_9, Q8NI35
MAST1, Q9Y2H9 = biological target: MAST1, Q9Y2H9
MAGI2_5, Q86UL8 = biological target: MAGI2_5, Q86UL8
TJP1_2, Q07157 = biological target: TJP1_2, Q07157
SCRIB_2, Q14160 = biological target: SCRIB_2, Q14160
NOS1, P29475 = biological target: NOS1, P29475
NHERF4_1, Q86UT5-2 = biological target: NHERF4_1, Q86UT5-2
Inadl_3, Q8NI35 = biological target: Inadl_3, Q8NI35
DLG2_2, Q15700 = biological target: DLG2_2, Q15700
SIPA1L2, Q9P2F8 = biological target: T7, SIPA1L2, Q9P2F8
T7 sequence (Q9P2F8 945-1036, limits assumed, looked up): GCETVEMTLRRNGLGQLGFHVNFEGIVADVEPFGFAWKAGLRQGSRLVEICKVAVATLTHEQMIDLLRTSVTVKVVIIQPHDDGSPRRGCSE

HTRA3, P83110 = biological target: T8, HTRA3, P83110
T8 sequence (P83110 354-453, limits assumed, looked up): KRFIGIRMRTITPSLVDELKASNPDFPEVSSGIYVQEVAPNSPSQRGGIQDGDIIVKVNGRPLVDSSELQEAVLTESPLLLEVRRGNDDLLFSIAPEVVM

SNTG2, Q9NY99 = biological target: T9, SNTG2, Q9NY99
T9 sequence (Q9NY99 68-166, limits assumed, looked up): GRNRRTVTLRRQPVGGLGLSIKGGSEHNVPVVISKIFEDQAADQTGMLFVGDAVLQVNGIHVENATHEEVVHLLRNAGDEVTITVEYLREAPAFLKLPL

HTRA4, P83105 = biological target: T10, HTRA4, P83105
T10 sequence (P83105 378-476, limits assumed, looked up): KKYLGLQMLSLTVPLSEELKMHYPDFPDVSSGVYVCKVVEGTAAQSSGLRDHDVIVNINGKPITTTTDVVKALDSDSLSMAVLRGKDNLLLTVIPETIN

MPP7, Q5T2T1 = biological target: T11, MPP7, Q5T2T1
T11 sequence (Q5T2T1 134-230, limits assumed, looked up): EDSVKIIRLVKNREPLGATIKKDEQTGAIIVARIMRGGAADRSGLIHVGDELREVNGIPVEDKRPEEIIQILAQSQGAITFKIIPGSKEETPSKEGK

SNTA1, Q13424 = biological target: T12, SNTA1, Q13424
T12 sequence (Q13424 82-180, limits assumed, looked up): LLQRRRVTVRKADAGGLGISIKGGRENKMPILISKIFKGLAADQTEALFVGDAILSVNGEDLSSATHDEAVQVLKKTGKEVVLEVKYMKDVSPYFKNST

IL16_1, Q14005 = biological target: IL16_1, Q14005
ARHGEF12, Q9NZN5-2 = biological target: ARHGEF12, Q9NZN5-2
PARD3_3, Q8TEW0 = biological target: PARD3_3, Q8TEW0
PARD3_3, Q8TEW0, sequence (Q8TEW0 582-685): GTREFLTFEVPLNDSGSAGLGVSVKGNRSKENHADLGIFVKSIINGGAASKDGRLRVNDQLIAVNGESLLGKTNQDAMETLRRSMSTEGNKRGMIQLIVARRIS

ARHGEF12, Q9NZN5-2, sequence (Q9NZN5 other isoform, or with tags, fused parts or gaps): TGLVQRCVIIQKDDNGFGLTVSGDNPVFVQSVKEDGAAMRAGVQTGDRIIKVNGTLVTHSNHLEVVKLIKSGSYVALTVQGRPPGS
TJP1_2, Q07157, sequence (Q07157 181-274): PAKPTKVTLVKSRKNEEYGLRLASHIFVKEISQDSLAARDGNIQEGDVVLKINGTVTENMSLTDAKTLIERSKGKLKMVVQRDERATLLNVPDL
MAGI2_5, Q86UL8, sequence (Q86UL8 915-1017): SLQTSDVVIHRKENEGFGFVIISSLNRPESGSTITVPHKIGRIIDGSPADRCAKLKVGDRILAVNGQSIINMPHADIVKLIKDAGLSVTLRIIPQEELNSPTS
MAST1, Q9Y2H9, sequence (Q9Y2H9 962-1065): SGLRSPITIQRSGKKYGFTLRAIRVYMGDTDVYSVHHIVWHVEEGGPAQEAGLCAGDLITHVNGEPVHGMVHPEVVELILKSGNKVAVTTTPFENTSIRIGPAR
SCRIB_2, Q14160, sequence (Q14160 857-960): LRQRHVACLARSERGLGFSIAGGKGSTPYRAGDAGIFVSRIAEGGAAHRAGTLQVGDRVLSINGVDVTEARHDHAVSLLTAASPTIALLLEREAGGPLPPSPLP
IL16_1, Q14005, sequence (Q14005 210-306): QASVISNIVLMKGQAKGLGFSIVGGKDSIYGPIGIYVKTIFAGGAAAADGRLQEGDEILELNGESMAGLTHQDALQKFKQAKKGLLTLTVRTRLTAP
Inadl_4, Q8NI35, sequence (Q8NI35 547-651): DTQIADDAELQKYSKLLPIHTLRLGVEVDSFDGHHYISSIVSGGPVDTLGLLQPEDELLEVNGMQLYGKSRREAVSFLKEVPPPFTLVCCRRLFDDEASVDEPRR
NOS1, P29475, sequence (P29475 9-101): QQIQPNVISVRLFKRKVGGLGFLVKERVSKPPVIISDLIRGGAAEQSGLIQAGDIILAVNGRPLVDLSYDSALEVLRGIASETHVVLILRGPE
Inadl_9, Q8NI35, sequence (Q8NI35 1530-1615): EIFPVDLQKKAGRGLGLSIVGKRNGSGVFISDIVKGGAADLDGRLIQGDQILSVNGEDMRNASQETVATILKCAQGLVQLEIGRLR
NHERF2_2, Q15599, sequence (Q15599 142-238): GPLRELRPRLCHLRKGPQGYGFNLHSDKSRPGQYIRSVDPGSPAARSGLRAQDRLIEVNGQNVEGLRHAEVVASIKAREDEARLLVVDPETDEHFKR
DLG2_2, Q15700, sequence (Q15700 189-283): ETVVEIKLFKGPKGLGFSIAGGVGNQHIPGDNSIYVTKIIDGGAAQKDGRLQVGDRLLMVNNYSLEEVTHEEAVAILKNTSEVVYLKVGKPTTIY
NHERF4_1, Q86UT5-2, sequence (Q86UT5 other isoform, or with tags, fused parts or gaps): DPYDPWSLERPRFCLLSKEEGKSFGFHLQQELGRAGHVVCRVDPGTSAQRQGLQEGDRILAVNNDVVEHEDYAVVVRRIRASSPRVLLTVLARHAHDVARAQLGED
Inadl_3, Q8NI35, sequence (Q8NI35 359-469): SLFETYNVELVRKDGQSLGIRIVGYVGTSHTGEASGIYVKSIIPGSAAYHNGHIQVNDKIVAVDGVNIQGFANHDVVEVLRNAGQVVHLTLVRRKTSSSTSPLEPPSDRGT

Binder	pKd (PARD3B_1, Q8TEW8)	pKd (LNX2_3, Q8N448)	pKd (Inadl_4, Q8NI35)	pKd (ARHGEF11, O15085)	pKd (SNTG1, Q9NSN8)	pKd (PCLO, Q9Y6V0)	pKd (NHERF2_2, Q15599)	pKd (SYNJ2BP, P57105)	pKd (Inadl_9, Q8NI35)	pKd (MAST1, Q9Y2H9)	pKd (MAGI2_5, Q86UL8)	pKd (TJP1_2, Q07157)	pKd (SCRIB_2, Q14160)	pKd (NOS1, P29475)	pKd (NHERF4_1, Q86UT5-2)	pKd (Inadl_3, Q8NI35)	pKd (DLG2_2, Q15700)	pKd (SIPA1L2, Q9P2F8)	pKd (HTRA3, P83110)	pKd (SNTG2, Q9NY99)	other results
PEYLGLDVPV [ERBB2, P04626]	below the threshold	below the threshold	below the threshold	3.83	3.55	below the threshold	below the threshold	below the threshold	below the threshold	3.98	below the threshold	3.65	below the threshold	3.9	below the threshold	3.48	below the threshold	below the threshold	below the threshold	below the threshold	pKd (HTRA4, P83105): 3.98; pKd (MPP7, Q5T2T1): below the threshold; pKd (SNTA1, Q13424): 3.61; pKd (IL16_1, Q14005): 3.65; pKd (ARHGEF12, Q9NZN5-2): below the threshold; pKd (PARD3_3, Q8TEW0): 3.52
HLRARKSEWV [GJD4, Q96KN9]	below the threshold	below the threshold	below the threshold	below the threshold	3.6	below the threshold	below the threshold	4.2	3.91	below the threshold	below the threshold	4.97	below the threshold	4.89	4.06	below the threshold	3.62	below the threshold	5.81	below the threshold	pKd (HTRA4, P83105): 4.51; pKd (MPP7, Q5T2T1): below the threshold; pKd (SNTA1, Q13424): below the threshold; pKd (IL16_1, Q14005): below the threshold; pKd (ARHGEF12, Q9NZN5-2): below the threshold; pKd (PARD3_3, Q8TEW0): below the threshold
DDPSTAETVL [ABCA7, Q8IZY2]	4.65	below the threshold	below the threshold	3.98	3.66	below the threshold	4.42	4.16	below the threshold	4.88	4.27	below the threshold	below the threshold	3.52	3.86	3.73	below the threshold	below the threshold	below the threshold	4.19	pKd (HTRA4, P83105): below the threshold; pKd (MPP7, Q5T2T1): below the threshold; pKd (SNTA1, Q13424): 4.71; pKd (IL16_1, Q14005): below the threshold; pKd (ARHGEF12, Q9NZN5-2): 4.63; pKd (PARD3_3, Q8TEW0): 4.56
AKPSRISTVV [IQSEC2, Q5JU85]	below the threshold	below the threshold	below the threshold	4.59	below the threshold	below the threshold	below the threshold	4.51	below the threshold	4.28	4.44	below the threshold	below the threshold	3.65	3.48	3.73	5.21	below the threshold	3.65	below the threshold	pKd (HTRA4, P83105): below the threshold; pKd (MPP7, Q5T2T1): below the threshold; pKd (SNTA1, Q13424): 4.12; pKd (IL16_1, Q14005): below the threshold; pKd (ARHGEF12, Q9NZN5-2): 4.75; pKd (PARD3_3, Q8TEW0): below the threshold
